Sequences and labels used below:
T1: LF-Biotin (B. anthracis, UniProt P15917 34-809)
T1 sequence: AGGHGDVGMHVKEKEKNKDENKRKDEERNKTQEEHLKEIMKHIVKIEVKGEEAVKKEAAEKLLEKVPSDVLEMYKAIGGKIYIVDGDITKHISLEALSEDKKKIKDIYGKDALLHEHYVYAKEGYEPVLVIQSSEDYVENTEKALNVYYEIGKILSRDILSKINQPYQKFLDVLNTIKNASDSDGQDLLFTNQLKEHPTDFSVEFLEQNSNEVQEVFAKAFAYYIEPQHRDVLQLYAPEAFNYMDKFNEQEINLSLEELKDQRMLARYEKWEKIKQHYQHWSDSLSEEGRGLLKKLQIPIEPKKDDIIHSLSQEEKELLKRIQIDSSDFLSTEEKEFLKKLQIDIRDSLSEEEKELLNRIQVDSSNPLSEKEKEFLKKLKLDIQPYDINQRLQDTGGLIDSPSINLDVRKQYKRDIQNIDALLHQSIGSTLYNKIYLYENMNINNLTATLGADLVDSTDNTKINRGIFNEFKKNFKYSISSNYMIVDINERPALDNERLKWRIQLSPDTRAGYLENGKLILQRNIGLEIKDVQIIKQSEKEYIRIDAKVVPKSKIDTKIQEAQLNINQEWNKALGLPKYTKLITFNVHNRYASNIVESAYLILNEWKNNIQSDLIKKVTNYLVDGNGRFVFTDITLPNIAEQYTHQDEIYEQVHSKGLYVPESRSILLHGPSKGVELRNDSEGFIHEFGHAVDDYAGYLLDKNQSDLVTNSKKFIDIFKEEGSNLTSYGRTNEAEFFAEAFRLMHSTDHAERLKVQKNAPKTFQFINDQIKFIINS

T2: EF-Biotin (B. anthracis, UniProt P40136 34-800)
T2 sequence: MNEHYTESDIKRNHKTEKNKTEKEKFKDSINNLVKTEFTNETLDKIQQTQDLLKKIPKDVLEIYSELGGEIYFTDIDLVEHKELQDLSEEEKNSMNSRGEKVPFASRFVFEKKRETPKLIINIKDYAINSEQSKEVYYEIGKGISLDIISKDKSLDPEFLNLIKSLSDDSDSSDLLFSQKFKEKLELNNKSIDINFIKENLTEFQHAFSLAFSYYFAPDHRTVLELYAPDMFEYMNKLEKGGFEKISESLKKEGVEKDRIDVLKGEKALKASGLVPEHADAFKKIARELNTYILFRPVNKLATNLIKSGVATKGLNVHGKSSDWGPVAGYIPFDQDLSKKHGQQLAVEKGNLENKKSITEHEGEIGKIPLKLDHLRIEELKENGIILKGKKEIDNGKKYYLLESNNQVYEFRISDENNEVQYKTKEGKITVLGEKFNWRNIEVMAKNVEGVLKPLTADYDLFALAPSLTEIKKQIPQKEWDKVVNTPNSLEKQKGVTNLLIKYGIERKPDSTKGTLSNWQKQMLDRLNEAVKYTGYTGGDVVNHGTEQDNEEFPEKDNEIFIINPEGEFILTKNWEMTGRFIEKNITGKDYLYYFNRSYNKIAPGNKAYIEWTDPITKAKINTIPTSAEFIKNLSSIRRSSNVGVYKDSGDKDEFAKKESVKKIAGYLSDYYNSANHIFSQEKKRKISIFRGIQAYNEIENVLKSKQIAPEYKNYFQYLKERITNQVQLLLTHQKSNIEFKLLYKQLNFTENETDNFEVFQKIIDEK

B1: clone 7 (VHH)
VHH: EVQLQASGGGFVQPGGSLRLSCAASGTSYANSDMGWFRQAPGKEREFVSAISGGDSAYYYYADSVKGRFTISRDNSKNTVYLQMNSLRAEDTATYYCATQQIGMREYYWGQGTQVTVSS
B2: clone 1 (VHH)
VHH: EVQLQASGGGFVQPGGSLRLSCAASGDTYRWDNMGWFRQAPGKEREFVSAISGLGNMDSYYADSVKGRFTISRDNSKNTVYLQMNSLRAEDTATYYCAQEEKWMSPQYWGQGTQVTVSS
B3: clone 6 (VHH)
VHH: EVQLQASGGGFVQPGGSLRLSCAASGTTYSSDTMGWFRQAPGKEREFVSAISGRQNWDRYYADSVKGRFTISRDNSKNTVYLQMNSLRAEDTATYYCAYWGHGTYEFDPKSMYWGQGTQVTVSS
B4: clone 9 (VHH)
VHH: EVQLQASGGGFVQPGGSLRLSCAASGSYSAETDMGWFRQAPGKEREFVSAISGDPTTTTYYADSVKGRFTISRDNSKNTVYLQMNSLRAEDTATYYCAYQRLDNFEIYWGQGTQVTVSS
B5: clone 5 (VHH)
VHH: EVQLQASGGGFVQPGGSLRLSCAASGTTSFRDTMGWFRQAPGKEREFVSAISWNEGHAHYYADSVKGRFTISRDNSKNTVYLQMNSLRAEDTATYYCASEDMWFNHFYWGQGTQVTVSS
B6: clone 8 (VHH)
VHH: EVQLQASGGGFVQPGGSLRLSCAASGSTSSHYDMGWFRQAPGKEREFVSAISYNHDHDTYYADSVKGRFTISRDNSKNTVYLQMNSLRAEDTATYYCAGATATTDGGYQEYWGQGTQVTVSS
B7: clone 2 (VHH)
VHH: EVQLQASGGGFVQPGGSLRLSCAASGFFSNIEDMGWFRQAPGKEREFVSAISGYENESPYYADSVKGRFTISRDNSKNTVYLQMNSLRAEDTATYYCAAQSYHGKKGMTEYWGQGTQVTVSS
B8: clone 3 (VHH)
VHH: EVQLQASGGGFVQPGGSLRLSCAASGSTSYSYNMGWFRQAPGKEREFVSAISRDGDWKNYYADSVKGRFTISRDNSKNTVYLQMNSLRAEDTATYYCAFEEHWMTPLYWGQGTQVTVSS
B9: clone 10 (VHH)
VHH: EVQLQASGGGFVQPGGSLRLSCAASGRTSWSEIMGWFRQAPGKEREFVSAISRYTDDYSYYADSVKGRFTISRDNSKNTVYLQMNSLRAEDTATYYCATYHYQYGGDQTFYWGQGTQVTVSS
B10: clone 4 (VHH)
VHH: EVQLQASGGGFVQPGGSLRLSCAASGRTFRIDTMGWFRQAPGKEREFVSAISFDTSHENYYADSVKGRFTISRDNSKNTVYLQMNSLRAEDTATYYCAPESMWFSIEYWGQGTQVTVSS
B11: clone 42 (VHH)
VHH: EVQLQASGGGFVQPGGSLRLSCAASGDGSFASAMGWFRQAPGKEREFVSAISAHAGGSPYYADSVKGRFTISRDNSKNTVYLQMNSLRAEDTATYYCAQRIGATRAMYWGQGTQVTVSS
B12: clone 49 (VHH)
VHH: EVQLQASGGGFVQPGGSLRLSCAASGGFFTSSTMGWFRQAPGKEREFVSAISRQHDNAPYYADSVKGRFTISRDNSKNMVYLQMNSLRAEDTATYYCAARNATHKGIYWGQGTQVTVSS
B13: clone 26 (VHH)
VHH: EVQLQASGGGFVQPGGSLRLSCAASGAYSARTTMGWFRQAPGKEREFVSAISAHEGQAPYYADSVKGRFTISRDNSKNTVYLQMNSLRAEDTATYYCATRAHEPKGMYWGQGTQVTVSS
B14: clone 28 (VHH)
VHH: EVQLQASGGGFVQPGGSLRLSCAASGASYRGTSMGWFRQAPGKEREFVSAISFRPDQQPYYADSVKGRFTISRDNSKNTVYLQMNSLRAEDTATYYCAERRQHSRGLYWGQGTQVTVSS
B15: clone 66 (VHH)
VHH: EVQLQASGGGFVQPGGSLRLSCAASGTGSNASAMGWFRQAPGKEREFVSAISRHEGQPPYYADSVKGRFTISRDNSKNTVYLQMNSLRAEDTATYYCAMRYQSHIDIPGDSSPKLMYWGQGTQVTVSS
B16: clone 41 (VHH)
VHH: EVQLQASGGGFVQPGGSLRLSCAASGDTWRTTAMGWFRQAPGKEREFVSAISGGDNRGTYYADSVKGRFTISRDNSKNTVYLQMNSLRAEDTATYYCAGRLNQNGPMYWGQGTQVTVSS
B17: clone 40 (VHH)
VHH: EVQLQASGGGFVQPGGSLRLSCAASGRTFDGSAMGWFRQAPGKEREFVSAISASPSGESYYADSVKGRFTISRDNSKNTVYLQMNSLRAEDTATYYCAGRGRSQKSMYWGQGTQVTVSS
B18: clone 44 (VHH)
VHH: EVQLQASGGGFVQPGGSLRLSCAASGFTSGSTAMGWFRQAPGKEREFVSAISRFENQGNYYADSVKGRFTISRDNSKNTVYLQMNSLRAEDTATYYCATRAVASSTMYWGQGTQVTVSS
B19: clone 60 (VHH)
VHH: EVQLQASGGGFVQPGGSLRLSCAASGSTFKHSAMGWFRQAPGKEREFVSAISSGPGMESYYADSVKGRFTISRDNSKNTVYLQMNSLRAEDTATYYCAGRAFPGQKMYWGQGTQVTVSS
B20: clone 57 (VHH)
VHH: EVQLQASGGGFVQPGGSLRLSCAASGGTSFQTAMGWFRQAPGKEREFVSAISSRQGSHPYYADSVKGRFTISRDNSKNTVYLQMNSLRAEDTATYYCATRMTETRKMYWGQGTQVTVSS

The target in the first assay is T1, LF-Biotin. The assay is described as follows: non-adsorbed VHH ELISA, IPTG-induced VHH-myc, LF-Biotin vs His-SNAP-Halo-Biotin. On the technique in general: In an ELISA, binding on a coated surface is turned into a signal by an enzyme label.
For the molecule B1, the “Induced ELISA ratio Signal LF/signal His-SNAP-Halo” value was determined as 6.8 ratio.

As to B2, the “Induced ELISA ratio Signal LF/signal His-SNAP-Halo” value is 6.3 ratio.

Consider B3, for which the “Induced ELISA ratio Signal LF/signal His-SNAP-Halo” value was 7.3 ratio.

For B4, the “Induced ELISA ratio Signal LF/signal His-SNAP-Halo” value was determined as 4.6 ratio.

B5: the “Induced ELISA ratio Signal LF/signal His-SNAP-Halo” value came to 8 ratio.

On to B6, for which the “Induced ELISA ratio Signal LF/signal His-SNAP-Halo” value was found to be 5.5 ratio.

On to B7, for which the “Induced ELISA ratio Signal LF/signal His-SNAP-Halo” value amounted to 5 ratio.

B8: the “Induced ELISA ratio Signal LF/signal His-SNAP-Halo” value is 6.3 ratio.

In the case of B9, the “Induced ELISA ratio Signal LF/signal His-SNAP-Halo” value was found to be 3.9 ratio.

With B10, the “Induced ELISA ratio Signal LF/signal His-SNAP-Halo” value is 9.2 ratio.

In a further assay the target is T2, EF-Biotin.
Assay: not given
Take B11: the “Phage ELISA Ag+/Ag-” value worked out at 36.2 ratio.

With B12, the “Phage ELISA Ag+/Ag-” value turned out to be 36.7 ratio.

As to B13, the “Phage ELISA Ag+/Ag-” value amounted to 51.3 ratio.

Turning to B14, the “Phage ELISA Ag+/Ag-” value amounted to 44.5 ratio.

Turning to B15, the “Phage ELISA Ag+/Ag-” value amounted to 51.8 ratio.

As for B16, the “Phage ELISA Ag+/Ag-” value is 36.7 ratio.

For the molecule B17, the “Phage ELISA Ag+/Ag-” value was 31.5 ratio.

On to B18, for which the “Phage ELISA Ag+/Ag-” value stood at 52.7 ratio.

Turning to B19, the “Phage ELISA Ag+/Ag-” value stood at 43.6 ratio.

As for B20, the “Phage ELISA Ag+/Ag-” value came to 40.1 ratio.

The next assay deals with T2, EF-Biotin. As to the kind of experiment: non-adsorbed VHH ELISA, IPTG-induced VHH-myc, EF-Biotin (Ag+) vs control (Ag-).
In the case of B11, the “Phage IPTG Ag+/Ag-” value is 5 ratio.

As to B12, the “Phage IPTG Ag+/Ag-” value turned out to be 3.6 ratio.

For B13, the “Phage IPTG Ag+/Ag-” value worked out at 10.2 ratio.

As for B14, the “Phage IPTG Ag+/Ag-” value amounted to 6.6 ratio.

Turning to B15, the “Phage IPTG Ag+/Ag-” value came to 5.8 ratio.

B16: the “Phage IPTG Ag+/Ag-” value is 5.7 ratio.

On to B17, for which the “Phage IPTG Ag+/Ag-” value came to 6.2 ratio.

As to B18, the “Phage IPTG Ag+/Ag-” value was 6.1 ratio.

On to B19, for which the “Phage IPTG Ag+/Ag-” value came to 4.9 ratio.

B20: the “Phage IPTG Ag+/Ag-” value amounted to 6.3 ratio.

A further assay deals with T1, LF-Biotin. As to the kind of experiment: non-adsorbed phage ELISA, VHH on M13 phage, LF-Biotin vs His-SNAP-Halo-Biotin.
Turning to B1, the “Phage ELISA ratio signal LF/signal His-SNAP-Halo” value is 17 ratio.

For the molecule B2, the “Phage ELISA ratio signal LF/signal His-SNAP-Halo” value was found to be 45.5 ratio.

Take B3: the “Phage ELISA ratio signal LF/signal His-SNAP-Halo” value is 8.9 ratio.

For the molecule B4, the “Phage ELISA ratio signal LF/signal His-SNAP-Halo” value came out at 38.1 ratio.

With B5, the “Phage ELISA ratio signal LF/signal His-SNAP-Halo” value was found to be 41.5 ratio.

Consider B6, for which the “Phage ELISA ratio signal LF/signal His-SNAP-Halo” value was determined as 30.2 ratio.

In the case of B7, the “Phage ELISA ratio signal LF/signal His-SNAP-Halo” value turned out to be 36.5 ratio.

As for B8, the “Phage ELISA ratio signal LF/signal His-SNAP-Halo” value came to 47.2 ratio.

Consider B9, for which the “Phage ELISA ratio signal LF/signal His-SNAP-Halo” value stood at 7.7 ratio.

Consider B10, for which the “Phage ELISA ratio signal LF/signal His-SNAP-Halo” value stood at 34.6 ratio.

The values above are taken from patent publication US20200199206A1 (AC THERA, published 2020).
